From FireProtDB come the findings set out here.

The labels stand for the following.
B1: Phosphocarrier protein HPr, P08877 (parent)
chain: MAQKTFKVTADSGIHARPATVLVQTASKYDADVNLEYNGKTVNLKSIMGVMSLGIAKGAEITISASGADENDALNALEETMKSEGLGE
B2: N154D, Q8GB52 (parent)
chain: MLKKVLSCCIAATFGIYSASSLAQSSVINSTENSQQPIAPLVLASSDDAITDRYIVVLKQPQMLMNDAAGLQQFTQQTVGLMANSFSIKTDDVFDSSIIGFVANLDALQLKQLRRDSRVEYIEQDQILSIDPVVSNEAVQSNAIWGLDRIDQRNLPLDRNYNANFDGFGVTAYVIDTGVNNNHEEFGGRSVSGYDFVDNDADSSDCNGHGTHVAGTIGGSQYGVAKNVNIVGVRVLSCSGSGTTSGVISGVDWVAQNASGPSVANMSLGGGQSTALDSAVQGAIQSGVSFMLAAGNSNADACNTSPARVPSGVTVGSTTSSDSRSSFSNWGSCVDLFAPGSQIKSAWYDGGYKTISGTSMATPHVAGVAALYLQENNGLTPLQLTGLLNSRASENKVSDTRGTTNKLLYSLADSGCEPDCGGPTPGPDPDGKLVSGVPVNGLSGSRGQKDYFYMDLQQGQQLTVVTIGGTGDADLYLRFGDKPTLNTWDCRPYRSGNSETCTVNVTQSGRYHVMLNAYSAYSGLTLQANF
B3: Alpha-lactalbumin, P00711 (parent)
chain: MMSFVSLLLVGILFHATQAEQLTKCEVFRELKDLKGYGGVSLPEWVCTTFHTSGYDTQAIVQNNDSTEYGLFQINNKIWCKDDQNPHSSNICNISCDKFLDDDLTDDIMCVKKILDKVGINYWLAHKALCSEKLDQWLCEKL
B4: Collagen alpha-1(XVIII) chain, P39060 (parent)
chain: MAPYPCGCHILLLLFCCLAAARANLLNLNWLWFNNEDTSHAATTIPEPQGPLPVQPTADTTTHVTPRNGSTEPATAPGSPEPPSELLEDGQDTPTSAESPDAPEENIAGVGAEILNVAKGIRSFVQLWNDTVPTESLARAETLVLETPVGPLALAGPSSTPQENGTTLWPSRGIPSSPGAHTTEAGTLPAPTPSPPSLGRPWAPLTGPSVPPPSSGRASLSSLLGGAPPWGSLQDPDSQGLSPAAAAPSQQLQRPDVRLRTPLLHPLVMGSLGKHAAPSAFSSGLPGALSQVAVTTLTRDSGAWVSHVANSVGPGLANNSALLGADPEAPAGRCLPLPPSLPVCGHLGISRFWLPNHLHHESGEQVRAGARAWGGLLQTHCHPFLAWFFCLLLVPPCGSVPPPAPPPCCQFCEALQDACWSRLGGGRLPVACASLPTQEDGYCVLIGPAAERISEEVGLLQLLGDPPPQQVTQTDDPDVGLAYVFGPDANSGQVARYHFPSLFFRDFSLLFHIRPATEGPGVLFAITDSAQAMVLLGVKLSGVQDGHQDISLLYTEPGAGQTHTAASFRLPAFVGQWTHLALSVAGGFVALYVDCEEFQRMPLARSSRGLELEPGAGLFVAQAGGADPDKFQGVIAELKVRRDPQVSPMHCLDEEGDDSDGASGDSGSGLGDARELLREETGAALKPRLPAPPPVTTPPLAGGSSTEDSRSEEVEEQTTVASLGAQTLPGSDSVSTWDGSVRTPGGRVKEGGLKGQKGEPGVPGPPGRAGPPGSPCLPGPPGLPCPVSPLGPAGPALQTVPGPQGPPGPPGRDGTPGRDGEPGDPGEDGKPGDTGPQGFPGTPGDVGPKGDKGDPGVGERGPPGPQGPPGPPGPSFRHDKLTFIDMEGSGFGGDLEALRGPRGFPGPPGPPGVPGLPGEPGRFGVNSSDVPGPAGLPGVPGREGPPGFPGLPGPPGPPGREGPPGRTGQKGSLGEAGAPGHKGSKGAPGPAGARGESGLAGAPGPAGPPGPPGPPGPPGPGLPAGFDDMEGSGGPFWSTARSADGPQGPPGLPGLKGDPGVPGLPGAKGEVGADGVPGFPGLPGREGIAGPQGPKGDRGSRGEKGDPGKDGVGQPGLPGPPGPPGPVVYVSEQDGSVLSVPGPEGRPGFAGFPGPAGPKGNLGSKGERGSPGPKGEKGEPGSIFSPDGGALGPAQKGAKGEPGFRGPPGPYGRPGYKGEIGFPGRPGRPGMNGLKGEKGEPGDASLGFGMRGMPGPPGPPGPPGPPGTPVYDSNVFAESSRPGPPGLPGNQGPPGPKGAKGEVGPPGPPGQFPFDFLQLEAEMKGEKGDRGDAGQKGERGEPGGGGFFGSSLPGPPGPPGPPGPRGYPGIPGPKGESIRGQPGPPGPQGPPGIGYEGRQGPPGPPGPPGPPSFPGPHRQTISVPGPPGPPGPPGPPGTMGASSGVRLWATRQAMLGQVHEVPEGWLIFVAEQEELYVRVQNGFRKVQLEARTPLPRGTDNEVAALQPPVVQLHDSNPYPRREHPHPTARPWRADDILASPPRLPEPQPYPGAPHHSSYVHLRPARPTSPPAHSHRDFQPVLHLVALNSPLSGGMRGIRGADFQCFQQARAVGLAGTFRAFLSSRLQDLYSIVRRADRAAVPIVNLKDELLFPSWEALFSGSEGPLKPGARIFSFDGKDVLRHPTWPQKSVWHGSDPNGRRLTESYCETWRTEAPSATGQASSLLGGRLLGQSAASCHHAYIVLCIENSFMTASK
B5: Phosphoglycerate kinase, P18912 (parent)
chain: MNKKTIRDVDVRGKRVFCRVDFNVPMEQGAITDDTRIRAALPTIRYLIEHGAKVILASHLGRPKGKVVEELRLDAVAKRLGELLERPVAKTNEAVGDEVKAAVDRLNEGDVLLLENVRFYPGEEKNDPELAKAFAELADLYVNDAFGAAHRAHASTEGIAHYLPAVAGFLMEKELEVLGKALSNPDRPFTAIIGGAKVKDKIGVIDNLLEKVDNLIIGGGLAYTFVKALGHDVGKSLLEEDKIELAKSFMEKAKEKGVRFYMPVDVVVADRFANDANTKVVPIDAIPADWSALDIGPKTRELYRDVIRESKLVVWNGPMGVFEMDAFAHGTKAIAEALAEALDTYSVIGGGDSAAAVEKFGLADKMDHISTGGGASLEFMEGKQLPGVVALEDK
B6: Superoxide dismutase [Cu-Zn], P00445 (parent)
chain: MVQAVAVLKGDAGVSGVVKFEQASESEPTTVSYEIAGNSPNAERGFHIHEFGDATNGCVSAGPHFNPFKKTHGAPTDEVRHVGDMGNVKTDENGVAKGSFKDSLIKLIGPTSVVGRSVVIHAGQDDLGKGDTEESLKTGNAGPRPACGVIGLTN
B7: Adenylate kinase, P16304 (parent)
chain: MNLVLMGLPGAGKGTQGERIVEDYGIPHISTGDMFRAAMKEETPLGLEAKSYIDKGELVPDEVTIGIVKERLGKDDCERGFLLDGFPRTVAQAEALEEILEEYGKPIDYVINIEVDKDVLMERLTGRRICSVCGTTYHLVFNPPKTPGICDKDGGELYQRADDNEETVSKRLEVNMKQTQPLLDFYSEKGYLANVNGQQDIQDVYADVKDLLGGLKK
B8: Osteomodulin, Q99983 (parent)
chain: MGFLSPIYVIFFFFGVKVHCQYETYQWDEDYDQEPDDDYQTGFPFRQNVDYGVPFHQYTLGCVSECFCPTNFPSSMYCDNRKLKTIPNIPMHIQQLYLQFNEIEAVTANSFINATHLKEINLSHNKIKSQKIDYGVFAKLPNLLQLHLEHNNLEEFPFPLPKSLERLLLGYNEISKLQTNAMDGLVNLTMLDLCYNYLHDSLLKDKIFAKMEKLMQLNLCSNRLESMPPGLPSSLMYLSLENNSISSIPEKYFDKLPKLHTLRMSHNKLQDIPYNIFNLPNIVELSVGHNKLKQAFYIPRNLEHLYLQNNEIEKMNLTVMCPSIDPLHYHHLTYIRVDQNKLKEPISSYIFFCFPHIHTIYYGEQRSTNGQTIQLKTQVFRRFPDDDDESEDHDDPDNAHESPEQEGAEGHFDLHYYENQE

Several values for one entry are separate records, joined by “and”; a condition that tells them apart may be missing. Equal values may be shown once.

The variants in the first data set derive from B1. Conditions: Bacillus subtilis (strain 168); pH 7; 30 °C; Urea; CD; Potassium phosphate 50 mM; reversible: yes; structure 2HPR; whole UniProt chain shown.
For S46D, the “ddG of mutation (higher = less stable)” value is -0.74 kcal/mol and the “denaturant midpoint (higher = more stable)” value turned out to be 4.63 M.

The same data set, now with this note: Bacillus subtilis (strain 168); pH 7; 73.6 °C; Thermal; CD; Potassium phosphate 50 mM; reversible: yes; structure 2HPR; whole UniProt chain shown.
As for S46D, the “ddG of mutation (higher = less stable)” value is -0.7 kcal/mol.

Variants of B2 are the subject of a further data set. Conditions: Vibrio sp. PA-44; pH 8.6; Thermal; CD; Glycine 25 mM; NaCl and CaCl2 100 mM and 15 mM; structure 1SH7; whole UniProt chain shown.
Turning to N154D, the Tm (in general, the temperature at the midpoint of the melting transition) is 66.3 °C and 68.2 °C; the “change of melting temperature, mutant - wild type (higher = more stable)” value (“change of melting temperature, mutant” for short) was 2.7 °C and 3.1 °C. On to N154D K396R, for which the midpoint of thermal melting (Tm) was determined as 65.1 °C and the “change of melting temperature, mutant” value stood at 1.5 °C.

In a further data set the parent is B3. The note with it: Bos taurus; pH 8; Thermal; Fluorescence; HEPES 10 mM; CaCl2 1 mM; structure 1HFZ; whole UniProt chain shown.
Consider D106N, for which the Tm is 31.4 °C and the “change of melting temperature, mutant” value was determined as 6.8 °C.

In another data set the parent is B4. Conditions: Homo sapiens; pH 7.4; 20 °C; GdnHCl; Fluorescence; Tris-HCl 5 mM; structure 1BNL; whole UniProt chain shown.
Take D1647A: the denaturant m value is 2.86 kcal/mol/M and 1.57 kcal/mol/M; the “denaturant midpoint (higher = more stable)” value was 1.79 M; the unfolding free energy was 5.12 kcal/mol and 2.82 kcal/mol.

Variants of B5 are the subject of the next data set. The note with it: Geobacillus stearothermophilus; pH 7.2; 25 °C; GdnHCl; Fluorescence; TEA 50 mM; reversible: no; structure 1PHP; whole UniProt chain shown.
As for I217A L221A, the unfolding free energy is 5.7 kcal/mol and 9.6 kcal/mol.

In another data set the parent is B6. The note with it: Saccharomyces cerevisiae (strain ATCC 204508 / S288c); Thermal; Fluorescence; structure 1JK9; whole UniProt chain shown.
Consider G94A, for which the “change of melting temperature, mutant” value was determined as 20 °C.

The variants in another data set derive from B7. Conditions: Bacillus subtilis (strain 168); pH 7.4; Thermal; DSC; Hepes 50 mM; reversible: No; structure 2EU8; whole UniProt chain shown.
As for L3I G17A D23K K69R G73S D75S Y103M K105R E114Q D118E V119E S169T Q180A D184A S187D E188S G190E Y191V A193V Y205F D210V L211I K217Q, the “change of melting temperature, mutant” value is 11.6 °C.

For the variant L3I G17A D23K K69R G73S D75S I99S Y103M K105R E114Q D118E V119E M121I E122A S169T Q180A D184A S187D E188S G190E Y191V A193V Y205F D210V L211I K217Q, the “change of melting temperature, mutant” value amounted to 12.5 °C. The same measure, in the same setting: the result for D23K Y103M E114Q S169T Q180A S187D A193V V208L D210V K217Q reads 5 °C.

Variants of B8 are the subject of a further data set. Conditions: Homo sapiens; pH 7.4; Thermal; DSC; PBS; transition: 2; structure 5YQ5; whole UniProt chain shown.
As for E225R, the Tm came to 41.8 °C. On the same count and under the same terms, the result for E303R reads 43.3 °C; that for E284R E303R, 43.8 °C; that for D254R, 37 °C. As to N278R, the Tm was found to be 38.5 °C.

Take E173R: the midpoint of thermal melting (Tm) was found to be 42.3 °C. The same measure, in the same setting: the result for E284R reads 42.3 °C.
